Measurements: patent US20130079278A1 (Novo Nordisk, published 2013)
*1 amine or outer side, *2 acyl side, *3 side chain or, on linkers, in order; H or OH if unused. Where no end group is shown, it is not given here. Side-chain parts run from the residue outwards. The star is where a group is joined. X1 = 4‑(16-(1H-tetrazol-5-yl)hexadecanoylsulfamoyl)butanoyl, O=C(CCCCCCCCCCCCCCCc1nnn[nH]1)NS(=O)(=O)CCCC(=O)*; X2 = 4‑(16-(1H-tetrazol-5-yl)hexadecanoylsulfamoyl)butanoyl, O=C(CCCCCCCCCCCCCCCc1nn[nH]n1)NS(=O)(=O)CCCC(=O)*; C18 diacid = O=C(O)CCCCCCCCCCCCCCCCC(=O)*; C16 diacid = O=C(O)CCCCCCCCCCCCCCC(=O)*; γGlu = O=C(O)[C@H](CCC(=O)[*:2])N[*:1]; AEEA = NCCOCCOCC(=O)O

Target: glucagon receptor (human, UniProt P47871 26-477)
Assay: cell-based or functional assay

glucagon receptor, sequence (P47871 26-477): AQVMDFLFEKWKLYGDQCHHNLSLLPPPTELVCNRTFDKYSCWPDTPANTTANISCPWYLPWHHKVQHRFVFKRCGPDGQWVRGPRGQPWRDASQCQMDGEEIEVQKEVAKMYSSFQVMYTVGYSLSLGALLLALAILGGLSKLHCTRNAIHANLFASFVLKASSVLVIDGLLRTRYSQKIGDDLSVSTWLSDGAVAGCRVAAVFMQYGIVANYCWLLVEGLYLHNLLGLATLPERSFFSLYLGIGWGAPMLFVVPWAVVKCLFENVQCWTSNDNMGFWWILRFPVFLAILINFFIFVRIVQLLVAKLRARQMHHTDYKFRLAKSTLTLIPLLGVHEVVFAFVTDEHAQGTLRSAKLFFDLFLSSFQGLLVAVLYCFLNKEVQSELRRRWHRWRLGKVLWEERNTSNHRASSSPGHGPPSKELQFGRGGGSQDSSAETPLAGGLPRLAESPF

## HSQGTFTSDVSKYLDLRRAQEFVK([γGlu-AEEA-AEEA-γGlu-γGlu-C18 diacid])WLLST
  Assay (I) Glucagon [EC50]: 88 pM

## HSQGTFTSDYSRYLESRRAQEFVK([γGlu-γGlu-AEEA-AEEA-γGlu-C18 diacid])WLEST
  Assay (I) Glucagon [EC50]: 1090 pM

## HSQGTFTSDYSKYLESRRAQDFVK([γGlu-γGlu-AEEA-γGlu-X1])WLLST
  Assay (I) Glucagon [EC50]: 362 pM

## HSQGTFTSDYSRYLDLRRAQDFVK([γGlu-γGlu-γGlu-AEEA-AEEA-γGlu-C18 diacid])WLLST
  Assay (I) Glucagon [EC50]: 243 pM

## HSQGTFTSDYSKYLESRRAQDFVK([γGlu-γGlu-AEEA-AEEA-γGlu-C18 diacid])WLLQT
  Assay (I) Glucagon [EC50]: 517 pM

## HSQGTFTSDYSRYLDLRRAQDFVK([γGlu-γGlu-AEEA-AEEA-γGlu-C18 diacid])WLEST
  Assay (I) Glucagon [EC50]: 136 pM

## HSHGTFTSDYSKYLDSRRAQDFVK([γGlu-γGlu-AEEA-AEEA-γGlu-C18 diacid])WLLNT
  Assay (I) Glucagon [EC50]: 105 pM

## HSQGTFTSDYSKYLDVRRAQDFVK([γGlu-γGlu-AEEA-AEEA-γGlu-C18 diacid])WLLNT
  Assay (I) Glucagon [EC50]: 81 pM

## HSQGTFTSDVSKYLDTRRAQEFVK([AEEA-AEEA-γGlu-γGlu-γGlu-C18 diacid])WLLST
  Assay (I) Glucagon [EC50]: 80 pM

## HSQGTFTSDYSRYLDLRRAQEFVK([γGlu-γGlu-AEEA-AEEA-γGlu-C18 diacid])WLLST
  Assay (I) Glucagon [EC50]: 95 pM

## HSQGTFTSDYSKYLDARRAQDFVK([γGlu-γGlu-AEEA-AEEA-γGlu-C18 diacid])WLEST
  Assay (I) Glucagon [EC50]: 70 pM

## HSQGTFTSDYSRYLDARRAQDFVK([γGlu-γGlu-γGlu-C16 diacid])WLLST
  Assay (I) Glucagon [EC50]: 16 pM

B1: N^ε24-[(4S)-4-carboxy-4-[[2-[2-[2-[[2-[2-[2-[[(4S)-4-carboxy-4-[[(4S)-4-carboxy-4-(17-carboxyheptadecanoylamino)butanoyl]amino]butanoyl]amino]ethoxy]ethoxy]acet … (peptide)
peptide: HSQGTFTSDVSKYLDTRRAQEFVK([γGlu-AEEA-AEEA-γGlu-γGlu-C18 diacid])WLLST-NH2
modifications: N-terminus assumed
SMILES: CC(C)C[C@H](NC(=O)[C@H](Cc1c[nH]c2ccccc12)NC(=O)[C@H](CCCCNC(=O)CC[C@H](NC(=O)COCCOCCNC(=O)COCCOCCNC(=O)CC[C@H](NC(=O)CC[C@H](NC(=O)CCCCCCCCCCCCCCCCC(=O)O)C(=O)O)C(=O)O)C(=O)O)NC(=O)[C@@H](NC(=O)[C@H](Cc1ccccc1)NC(=O)[C@H](CCC(=O)O)NC(=O)[C@H](CCC(N)=O)NC(=O)[C@H](C)NC(=O)[C@H](CCCNC(=N)N)NC(=O)[C@H](CCCNC(=N)N)NC(=O)[C@@H](NC(=O)[C@H](CC(=O)O)NC(=O)[C@H](CC(C)C)NC(=O)[C@H](Cc1ccc(O)cc1)NC(=O)[C@H](CCCCN)NC(=O)[C@H](CO)NC(=O)[C@@H](NC(=O)[C@H](CC(=O)O)NC(=O)[C@H](CO)NC(=O)[C@@H](NC(=O)[C@H](Cc1ccccc1)NC(=O)[C@@H](NC(=O)CNC(=O)[C@H](CCC(N)=O)NC(=O)[C@H](CO)NC(=O)[C@@H](N)Cc1c[nH]cn1)[C@@H](C)O)[C@@H](C)O)C(C)C)[C@@H](C)O)C(C)C)C(=O)N[C@@H](CC(C)C)C(=O)N[C@@H](CO)C(=O)N[C@H](C(N)=O)[C@@H](C)O
  Assay (I) Glucagon [EC50]: 156 pM

## HSQGTFTSDYSKYLDARRAQDFVK([γGlu-γGlu-AEEA-AEEA-γGlu-C18 diacid])WLLQT
  Assay (I) Glucagon [EC50]: 192 pM

## HSQGTFTSDYSRYLDLRRAQDFVK([γGlu-γGlu-AEEA-AEEA-X1])WLLST
  Assay (I) Glucagon [EC50]: 357 pM

## HSQGTFTSDYSKYLESRRAQEFVK([γGlu-γGlu-γGlu-γGlu-C18 diacid])WLLST
  Assay (I) Glucagon [EC50]: 169 pM

## HSQGTFTSDYSRYLESRRAQEFVK([γGlu-γGlu-γGlu-γGlu-C18 diacid])WLLST
  Assay (I) Glucagon [EC50]: 148 pM

## HSQGTFTSDYSRYLDLRRAQDFVK([γGlu-γGlu-AEEA-AEEA-γGlu-C18 diacid])WLLQT
  Assay (I) Glucagon [EC50]: 204 pM

## HSQGTFTSDYSRYLDIRRAQEFVK([γGlu-γGlu-AEEA-AEEA-γGlu-C18 diacid])WLEST
  Assay (I) Glucagon [EC50]: 99 pM

## HSQGTFTSDVSRYLESRRAQEFVK([γGlu-γGlu-AEEA-AEEA-γGlu-C18 diacid])WLEST
  Assay (I) Glucagon [EC50]: 1630 pM

## HSQGTFTSDYSKYLESRRAQDFVK([γGlu-γGlu-AEEA-X1])WLLST
  Assay (I) Glucagon [EC50]: 395 pM

## HSQGTFTSDVSKYLESRRAQEFVK([γGlu-γGlu-γGlu-γGlu-C18 diacid])WLLST
  Assay (I) Glucagon [EC50]: 118 pM

## HSQGTFTSDYSRYLESRRAQEFVK([γGlu-γGlu-AEEA-AEEA-γGlu-C16 diacid])WLLST
  Assay (I) Glucagon [EC50]: 72 pM

## HSQGTFTSDYSRYLESRRAQDFVK([γGlu-γGlu-AEEA-AEEA-γGlu-C16 diacid])WLLST
  Assay (I) Glucagon [EC50]: 140 pM

## HSQGTFTSDYSKYLESRRAQDFVK([γGlu-γGlu-AEEA-AEEA-γGlu-C16 diacid])WLLST
  Assay (I) Glucagon [EC50]: 71 pM

## HSHGTFTSDYSKYLDSKRAQEFVK([γGlu-γGlu-AEEA-γGlu-C18 diacid])WLLST
  Assay (I) Glucagon [EC50]: 77 pM

## HSQGTFTSDYSRYLESRRAQEFVK([γGlu-γGlu-AEEA-AEEA-γGlu-C18 diacid])WLLST
  Assay (I) Glucagon [EC50]: 289 pM

B2: N^ε24-[(4S)-4-carboxy-4-[[(4S)-4-carboxy-4-[[2-[2-[2-[[2-[2-[2-[[(4S)-4-carboxy-4-(17-carboxyheptadecanoylamino)butanoyl]amino]ethoxy]ethoxy]acetyl]amino]ethoxy … (peptide)
peptide: HSQGTFTSDYSKYLESRRAQDFVK([γGlu-γGlu-AEEA-AEEA-γGlu-C18 diacid])WLLST-NH2
modifications: N-terminus assumed
SMILES: CC(C)C[C@H](NC(=O)[C@H](Cc1ccc(O)cc1)NC(=O)[C@H](CCCCN)NC(=O)[C@H](CO)NC(=O)[C@H](Cc1ccc(O)cc1)NC(=O)[C@H](CC(=O)O)NC(=O)[C@H](CO)NC(=O)[C@@H](NC(=O)[C@H](Cc1ccccc1)NC(=O)[C@@H](NC(=O)CNC(=O)[C@H](CCC(N)=O)NC(=O)[C@H](CO)NC(=O)[C@@H](N)Cc1c[nH]cn1)[C@@H](C)O)[C@@H](C)O)C(=O)N[C@@H](CCC(=O)O)C(=O)N[C@@H](CO)C(=O)N[C@@H](CCCNC(=N)N)C(=O)N[C@@H](CCCNC(=N)N)C(=O)N[C@@H](C)C(=O)N[C@@H](CCC(N)=O)C(=O)N[C@@H](CC(=O)O)C(=O)N[C@@H](Cc1ccccc1)C(=O)N[C@H](C(=O)N[C@@H](CCCCNC(=O)CC[C@H](NC(=O)CC[C@H](NC(=O)COCCOCCNC(=O)COCCOCCNC(=O)CC[C@H](NC(=O)CCCCCCCCCCCCCCCCC(=O)O)C(=O)O)C(=O)O)C(=O)O)C(=O)N[C@@H](Cc1c[nH]c2ccccc12)C(=O)N[C@@H](CC(C)C)C(=O)N[C@@H](CC(C)C)C(=O)N[C@@H](CO)C(=O)N[C@H](C(N)=O)[C@@H](C)O)C(C)C
  Assay (I) Glucagon [EC50]: 134 pM

## HSQGTFTSDYSRYLDTRRAQDFVK([γGlu-γGlu-AEEA-AEEA-γGlu-C18 diacid])WLEST
  Assay (I) Glucagon [EC50]: 176 pM

## HSQGTFTSDVSRYLDTRRAQEFVK([γGlu-AEEA-AEEA-γGlu-γGlu-C18 diacid])WLLST
  Assay (I) Glucagon [EC50]: 176 pM

## HSQGTFTSDYSRYLDLRRAQDFVK([γGlu-γGlu-γGlu-γGlu-C16 diacid])WLLST
  Assay (I) Glucagon [EC50]: 109 pM

## HSQGTFTSDYSRYLDLRRAQDFVK([γGlu-γGlu-AEEA-AEEA-γGlu-X2])WLLST
  Assay (I) Glucagon [EC50]: 231 pM

## HSQGTFTSDYSKYLESRRAQDFVK([γGlu-γGlu-AEEA-AEEA-γGlu-C18 diacid])WLEST
  Assay (I) Glucagon [EC50]: 682 pM

## HSQGTFTSDYSRYLDARRAQDFVK([γGlu-γGlu-γGlu-γGlu-C16 diacid])WLLST
  Assay (I) Glucagon [EC50]: 106 pM
